Literature values as cited in publication PMC4712107.
Like-named read-outs stand apart in the source and are kept apart here.

Key:
[1] = molecular target: CRF-BP (Homo sapiens) (UniProt P24387)
[2] = molecular target: CRF-BP (Homo sapiens) (UniProt P24387); remark: listed apart in the source

Chain of UniProt P24387 (P24387 25-322): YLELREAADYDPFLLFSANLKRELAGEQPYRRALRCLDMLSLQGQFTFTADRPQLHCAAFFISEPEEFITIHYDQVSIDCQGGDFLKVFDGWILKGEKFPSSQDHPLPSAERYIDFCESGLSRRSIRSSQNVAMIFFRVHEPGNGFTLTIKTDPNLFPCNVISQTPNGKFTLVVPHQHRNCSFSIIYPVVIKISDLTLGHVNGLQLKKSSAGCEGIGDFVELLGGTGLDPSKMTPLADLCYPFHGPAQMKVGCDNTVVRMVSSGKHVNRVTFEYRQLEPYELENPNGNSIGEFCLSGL

| Kd [1] [nM] | Kd [2] [nM] | Substance |
| --- | --- | --- |
| < 1 | – | Urocortin 1 (from UniProt P55089) |
| – | < 1 | CRF (from UniProt P06850) |
